Experimental data from article PMC6548132, “Engineered SUMO/protease system identifies Pdr6 as a bidirectional nuclear transport receptor” (The Journal of Cell Biology, 2019).

Biological target: T1, recombinant Pdr6 (S. cerevisiae, UniProt P32767 1-1081)
T1 construct: Pdr6/Kap122, S. cerevisiae; also called Kap122; source: E. coli NEB express, purified (Ni2+ chelate beads)
T1 sequence (looked up): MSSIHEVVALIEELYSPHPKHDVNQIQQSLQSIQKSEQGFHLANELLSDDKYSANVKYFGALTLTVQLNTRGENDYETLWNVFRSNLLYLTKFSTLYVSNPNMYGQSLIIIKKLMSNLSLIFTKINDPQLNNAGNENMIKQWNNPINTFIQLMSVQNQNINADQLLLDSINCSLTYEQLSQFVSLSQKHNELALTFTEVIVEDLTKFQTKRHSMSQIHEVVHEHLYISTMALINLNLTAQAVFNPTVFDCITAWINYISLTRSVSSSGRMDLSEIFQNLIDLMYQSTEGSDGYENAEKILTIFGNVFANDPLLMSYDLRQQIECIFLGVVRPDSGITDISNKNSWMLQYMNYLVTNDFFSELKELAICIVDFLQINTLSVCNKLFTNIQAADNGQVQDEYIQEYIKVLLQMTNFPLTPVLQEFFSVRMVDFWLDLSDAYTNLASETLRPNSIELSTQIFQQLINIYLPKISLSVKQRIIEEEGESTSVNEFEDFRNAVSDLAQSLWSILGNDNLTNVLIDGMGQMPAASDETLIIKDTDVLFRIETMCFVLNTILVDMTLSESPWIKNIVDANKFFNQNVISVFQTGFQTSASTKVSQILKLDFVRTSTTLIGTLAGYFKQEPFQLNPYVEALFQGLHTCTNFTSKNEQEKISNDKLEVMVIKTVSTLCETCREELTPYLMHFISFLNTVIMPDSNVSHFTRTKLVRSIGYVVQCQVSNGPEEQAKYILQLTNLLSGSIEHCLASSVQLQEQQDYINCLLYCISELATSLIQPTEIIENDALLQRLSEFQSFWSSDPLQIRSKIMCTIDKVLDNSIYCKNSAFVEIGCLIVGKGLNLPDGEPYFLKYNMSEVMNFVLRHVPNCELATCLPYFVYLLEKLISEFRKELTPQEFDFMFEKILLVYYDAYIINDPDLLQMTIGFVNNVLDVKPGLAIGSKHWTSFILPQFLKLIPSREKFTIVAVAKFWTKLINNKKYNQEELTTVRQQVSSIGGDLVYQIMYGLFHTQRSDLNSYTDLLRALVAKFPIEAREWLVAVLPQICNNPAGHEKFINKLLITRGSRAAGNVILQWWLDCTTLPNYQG
Assay: pull-down; 1.5 µM H14-ZZ-NEDD8-Ubc9 as bait, 3 µM recombinant Pdr6, with or without 3 µM RanGTP and 3 µM eIF5A; anti-ZZ/ED affibody matrix, elution by NEDP1 tag cleavage; 1 h at 4°, 45 mM Tris/HCl pH 7.5, 100 mM NaCl, 2 mM MgCl2, 5 mM DTT; SDS-PAGE/Coomassie
Details: both partners purified

B1: H14-ZZ-NEDD8–tagged Ubc9 (enzyme, yeast (S. cerevisiae), UniProt P50623 1-157, looked up)
chain: MSSLCLQRLQEERKKWRKDHPFGFYAKPVKKADGSMDLQKWEAGIPGKEGTNWAGGVYPITVEYPNEYPSKPPKVKFPAGFYHPNVYPSGTICLSILNEDQDWRPAITLKQIVLGVQDLLDSPNPNSPAQEPAWRSFSRNKAEYDKKVLLQAKQYSK
notes: Ubc9, SUMO-conjugating E2 enzyme of yeast; Tag is cut by NEDP1 only at elution; also called immobilized Ubc9; source: E. coli NEB express, purified (Ni2+ chelate beads)
B1: binds.
